The target in data set [1] is T1, HDLBP full-length (FL), Vigilin (Homo sapiens, UniProt Q00341 1-1268). The data set can be described thus: fluorescence anisotropy; 20 mM Tris pH 7.5, 60 mM KCl, 1 mM EDTA, 10% glycerol, 1 ng/ul tRNA, 1 ng/ul heparin, 0.4 U/ul RNasin, 200 ng/ul BSA; 10 nM RNA probe; 20 min on ice. To be noted: protein: recombinant; purification section says GST removed by TEV; label: 5' fluorescein.

Data set [2] has as its target T1, HDLBP full-length (FL), Vigilin. The data set is described as above. To be noted: protein: recombinant; purification section says GST removed by TEV; label: 5' fluorescein. This is another data set of the same source.

Three molecules from PMC9117268, “HDLBP binds ER-targeted mRNAs by multivalent interactions to promote protein synthesis of transmembrane and secreted proteins” can be followed below.

T1 sequence (Q00341 whole entry): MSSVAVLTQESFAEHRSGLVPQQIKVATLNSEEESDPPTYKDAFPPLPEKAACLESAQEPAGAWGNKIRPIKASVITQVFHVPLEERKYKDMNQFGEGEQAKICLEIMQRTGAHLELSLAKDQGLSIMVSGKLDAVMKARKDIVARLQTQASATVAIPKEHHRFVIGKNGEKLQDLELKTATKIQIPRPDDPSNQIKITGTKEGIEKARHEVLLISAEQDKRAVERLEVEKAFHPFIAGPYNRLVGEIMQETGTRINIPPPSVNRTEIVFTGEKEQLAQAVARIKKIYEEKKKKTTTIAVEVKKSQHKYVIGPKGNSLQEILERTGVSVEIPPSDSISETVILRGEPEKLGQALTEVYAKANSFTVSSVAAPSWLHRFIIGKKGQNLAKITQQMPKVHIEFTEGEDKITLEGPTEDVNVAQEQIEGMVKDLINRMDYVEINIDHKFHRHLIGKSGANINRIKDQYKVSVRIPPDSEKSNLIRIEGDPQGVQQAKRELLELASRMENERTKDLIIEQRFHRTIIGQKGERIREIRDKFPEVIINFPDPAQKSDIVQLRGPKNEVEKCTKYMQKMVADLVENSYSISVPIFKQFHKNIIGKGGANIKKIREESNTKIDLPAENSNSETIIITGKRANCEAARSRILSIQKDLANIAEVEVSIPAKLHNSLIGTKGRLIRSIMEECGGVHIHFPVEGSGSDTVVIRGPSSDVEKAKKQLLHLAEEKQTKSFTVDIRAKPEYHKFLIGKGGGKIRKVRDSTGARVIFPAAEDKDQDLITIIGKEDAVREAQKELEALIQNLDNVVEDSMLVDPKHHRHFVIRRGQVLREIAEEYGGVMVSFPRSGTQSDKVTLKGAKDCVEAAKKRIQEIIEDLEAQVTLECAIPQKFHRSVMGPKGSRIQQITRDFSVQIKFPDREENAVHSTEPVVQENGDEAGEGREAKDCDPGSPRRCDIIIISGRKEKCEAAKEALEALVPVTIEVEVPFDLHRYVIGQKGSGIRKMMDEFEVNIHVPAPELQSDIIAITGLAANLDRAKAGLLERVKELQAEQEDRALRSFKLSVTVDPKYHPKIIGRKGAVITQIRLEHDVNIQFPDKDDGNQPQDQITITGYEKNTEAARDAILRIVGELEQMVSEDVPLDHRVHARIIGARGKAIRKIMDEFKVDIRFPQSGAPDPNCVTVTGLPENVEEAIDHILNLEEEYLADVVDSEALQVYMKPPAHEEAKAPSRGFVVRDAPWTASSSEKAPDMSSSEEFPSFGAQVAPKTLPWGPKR

With CAACAACAACAACAACAACAACAACAACAACAA (ssRNA) [CAA_oligomer], in data set [1], the binding signal was ~10 fold lower affinity than CCU/CUU oligomers. Turning to CACAGCUCUCCUAUUGAAACUUGCCCAGAUGUU (ssRNA) [TFRC_2], the binding result in data set [2] is recorded as “binds”.

AUUCCCUUCCUUCAAUCACACUCAGUUUCCACC (ssRNA) [TFRC_1]: in data set [2], the binding result is given as “binds”.
